Data as given in patent publication US20220048996A1 (F STAR BETA, published 2022).

B1: G1/FS30-10-16 (antibody, IgG1, V domains shown)
VH: EVQLLESGGGLVQPGGSLRLSCAASGFTFSSYDMSWVRQAPGKGLEWVSDIDPTGSKTDYADSVKGRFTISRDNSKNTLYLQMNSLRAEDTAVYYCARDLLVYGFDYWGQGTLVTVSS
VL: EIVLTQSPGTLSLSPGERATLSCRASQSVSSSYLAWYQQKPGQAPRLLIYGASSRATGIPDRFSGSGSGTDFTLTISRLEPEDFAVYYCQQSYSYPVTFGQGTKVEIKR
notes: IgG1 format; also called CD137 Fab (in IgG1 format; FS30-010-016)
B2: G1/MOR7480.1 (antibody, human IgG1, lambda)
heavy: not shown
light: SYELTQPPSVSVSPGQTASITCSGDNIGDQYAHWYQQKPGQSPVLVIYQDKNRPSGIPERFSGSNSGNTATLTISGTQAMDEADYYCATYTGFGSLAVFGGGTKLTVLGQPKAAPSVTLFPPSSEELQANKATLVCLISDFYPGAVTVAWKADSSPVKAGVETTTPSKQSNNKYAASSYLSLTPEQWKSHRSYSCQVTHEGSTVEKTVAPTECS
notes: also called G1/M0R7480.1

How the values were obtained:
[1] = biological target: T1, human OX40 expressed on DO11.10 cells (DO11.10-hOX40) (human, UniProt P43489 29-277); assay: flow cytometry on DO11.10 cells expressing the target, three experiments
T1 construct: Also used here for OX40 on primary human T cells in the functional rows; also called human OX40 receptor; OX40 on human T cells
T1 sequence: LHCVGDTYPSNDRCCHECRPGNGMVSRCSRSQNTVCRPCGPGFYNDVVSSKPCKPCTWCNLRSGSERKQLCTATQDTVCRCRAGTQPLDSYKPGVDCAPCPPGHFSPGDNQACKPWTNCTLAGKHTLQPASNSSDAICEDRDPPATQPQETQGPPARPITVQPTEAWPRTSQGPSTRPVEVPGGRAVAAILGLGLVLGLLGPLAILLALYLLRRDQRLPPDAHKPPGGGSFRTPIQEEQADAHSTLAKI
Description: (§1) 50 μl of the antibody dilutions were added to the wells containing cells (final volume 100 μl) and incubated at 4° C. for 1 hour. […] The plates were washed and resuspended in 100 μl of PBS containing DAPI (Biotium, cat no 40043) at 1 μg/ml. The plates were analysed using a Canto II flow cytometer (BD Bioscience) and the data analysed using FlowJo. Dead cells were identified by their higher fluorescence on the UV (405 nm/450/50) channel and excluded from analysis. […] The GMFI data was fit using log (agonist) vs response (three parameters) in Graph Pad Prism Software to generate EC₅₀ values.
(§2) However, in this experiment, instead of using HEK cells to analyse the non-specific binding, non-transduced DO11.10 cells were used. […] The experiment was repeated three times to increase the reliability of the EC₅₀ values calculated.

[2] = biological target: T2, cynomolgus OX40 expressed on DO11.10 cells (DO11.10-cOX40) (cynomolgus, UniProt P43489 29-277 (human entry)); assay: as above
T2 chain: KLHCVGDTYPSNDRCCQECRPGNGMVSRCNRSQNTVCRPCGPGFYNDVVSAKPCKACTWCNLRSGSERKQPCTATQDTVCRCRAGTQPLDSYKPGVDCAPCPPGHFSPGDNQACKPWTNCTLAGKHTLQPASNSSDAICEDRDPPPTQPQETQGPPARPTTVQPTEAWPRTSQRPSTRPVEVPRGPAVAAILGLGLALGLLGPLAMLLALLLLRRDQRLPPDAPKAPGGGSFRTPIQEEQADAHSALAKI
Description: as §1, §2

[3] = biological target: T3, cynomolgus CD137 expressed on DO11.10 cells (DO11.10-cCD137) (cynomolgus monkey, UniProt Q07011 24-255 (human entry)); assay: flow cytometry on DO11.10 cells expressing the target, mean ± SD of three experiments
T3 chain: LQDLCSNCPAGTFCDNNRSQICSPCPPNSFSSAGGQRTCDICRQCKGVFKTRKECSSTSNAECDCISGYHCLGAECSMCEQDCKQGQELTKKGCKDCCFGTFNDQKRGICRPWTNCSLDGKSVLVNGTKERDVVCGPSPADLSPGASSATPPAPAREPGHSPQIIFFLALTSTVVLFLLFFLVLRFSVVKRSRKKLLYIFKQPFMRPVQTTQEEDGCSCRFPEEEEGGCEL
Description: as §1, §2

[4] = biological target: T4, human CD137 expressed on DO11.10 cells (DO11.10-hCD137) (human, UniProt Q07011 24-255); assay: as above
T4 construct: also called CD137 on human T cells
Description: as §1, §2

cOX40-mFc = biological target: T5, cOX40-mFc (cynomolgus); assay: SPR, antibody captured via anti-human Fab, antigen flowed
T5 construct: Dimeric; also called cyno OX40-mFc
T5 chain: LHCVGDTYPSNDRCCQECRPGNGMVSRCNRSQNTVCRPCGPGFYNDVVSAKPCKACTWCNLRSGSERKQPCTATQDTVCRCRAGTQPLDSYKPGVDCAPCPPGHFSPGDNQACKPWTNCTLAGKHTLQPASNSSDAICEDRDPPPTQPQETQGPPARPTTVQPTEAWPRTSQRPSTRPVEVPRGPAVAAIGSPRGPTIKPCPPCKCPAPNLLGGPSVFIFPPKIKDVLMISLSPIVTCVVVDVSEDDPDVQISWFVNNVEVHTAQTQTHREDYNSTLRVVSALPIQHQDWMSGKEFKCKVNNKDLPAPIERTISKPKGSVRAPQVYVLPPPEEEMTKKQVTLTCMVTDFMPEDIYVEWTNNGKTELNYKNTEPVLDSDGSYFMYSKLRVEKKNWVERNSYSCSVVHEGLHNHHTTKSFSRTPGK

hOX40-mFc = biological target: T6, hOX40-mFc (human); assay: as above
T6 construct: Dimeric; also called human OX40-mFc
T6 chain: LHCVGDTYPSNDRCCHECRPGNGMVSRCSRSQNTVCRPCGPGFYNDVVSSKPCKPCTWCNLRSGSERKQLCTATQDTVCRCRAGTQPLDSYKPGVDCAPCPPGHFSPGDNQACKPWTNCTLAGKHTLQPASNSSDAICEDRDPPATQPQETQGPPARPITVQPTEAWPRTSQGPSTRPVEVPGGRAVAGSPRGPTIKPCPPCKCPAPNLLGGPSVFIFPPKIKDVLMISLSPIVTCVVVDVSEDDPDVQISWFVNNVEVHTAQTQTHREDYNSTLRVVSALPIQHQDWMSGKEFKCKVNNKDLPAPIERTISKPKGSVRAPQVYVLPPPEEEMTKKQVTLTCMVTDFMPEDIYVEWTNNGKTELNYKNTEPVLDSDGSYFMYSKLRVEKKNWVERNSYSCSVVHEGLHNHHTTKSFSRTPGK

[5] = biological target: T1, human OX40 expressed on DO11.10 cells …; assay: flow cytometry on DO11.10 cells expressing the target
[6] = biological target: T2, cynomolgus OX40 expressed on DO11.10 …; assay: as above

| Binder | binding result [1] | binding result [2] | EC50 [3] [nM] | EC50 [4] [nM] | binding result (cOX40-mFc) | binding result (hOX40-mFc) | binding result [5] | binding result [6] |
| --- | --- | --- | --- | --- | --- | --- | --- | --- |
| B1 | no binding | no binding | 0.09 | 0.1 | – | – | – | – |
| B2 | – | – | – | – | no binding (tested: 200 nM) | no binding (tested: 200 nM) | no binding | no binding |
